The results in this text go back to patent publication US20260139049A1 (published 2026).

Residue numbers refer to the chain shown, from its start.

For orientation: EC50 means the concentration at which the effect is half-maximal.

Sequences and labels used below:
T1: monkey CLDN6 (Cyno CLDN6) (monkey (Cyno))
T1 chain: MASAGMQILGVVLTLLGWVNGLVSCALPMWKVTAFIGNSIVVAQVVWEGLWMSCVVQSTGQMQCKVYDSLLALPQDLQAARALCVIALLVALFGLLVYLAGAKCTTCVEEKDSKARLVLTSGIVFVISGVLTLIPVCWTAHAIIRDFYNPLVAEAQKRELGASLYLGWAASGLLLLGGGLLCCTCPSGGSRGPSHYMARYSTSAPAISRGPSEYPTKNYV

T2: human CLDN6 (human, UniProt P56747 1-220)
T2 chain: T1 chain with R191Q

T3: mouse CLDN6 (mouse, UniProt Q9Z262 1-219)
T3 chain: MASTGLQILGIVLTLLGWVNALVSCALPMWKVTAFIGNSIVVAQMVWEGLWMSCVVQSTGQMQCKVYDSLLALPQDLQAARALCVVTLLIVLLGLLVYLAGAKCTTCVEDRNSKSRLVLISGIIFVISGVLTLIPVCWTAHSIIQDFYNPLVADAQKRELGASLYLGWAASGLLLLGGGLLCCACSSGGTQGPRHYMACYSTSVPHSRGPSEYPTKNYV

B1: IMAB027 (antibody, V domains shown)
VH: EVQLQQSGPELVKPGASMKISCKASGYSFTGYTMNWVKQSHGKNLEWIGLINPYNGGTIYNQKFKGKATLTVDKSSSTAYMELLSLTSEDSAVYYCARDYGFVLDYWGQGTTLTVSS
VL: IVLTQSPAIMSASPGEKVTITCSASSSVSYLHWFQQKPGTSPKLWVYSTSNLPSGVPARFGGSGSGTSYSLTISRMEAEDAATYYCQQRSIYPPWTFGGGTKLEIKR
B2: 51C10H4 (antibody, V domains shown)
VH: EVQLQQSGPELVKPGASVKMSCKASGYTFTDYNMHWVKKSHGKSLEWIGYVNPNNGATSYNQKFKGKATLTVNKSSSTAYMELRSLTSEDSAVYNCARWDGYVYYYGLDYWGQGTSVTVSS
VL: DIQMTQSSSYLSVSLGGRVTITCKASDHINNWLAWYQQKPGNAPRLLISGATSLETGVPSRFSGSGSGKDYTLSITSLQTEDVATYYCQQYWSTPYTFGGGTKLEIKR
B3: PiH1004 (antibody, V domains shown)
VH: QVQLVQSGAEVKKPGASVKVSCKASGYTFTDYNMHWVRQAPGQSLEWIGYVNPNNGATSYNQKFKGRATMTVDKSTSTVYMELSSLRSEDTAVYNCARWDGYVYYYGLDYWGQGTLVTVSS
VL: DIQMTQSPSSLSASVGDRVTITCKASDHINNWLAWYQQKPGKVPKLLISGATSLETGVPSRFSGSGSGTDYTLTISSLQPEDVATYYCQQYWSTPYTFGGGTKLEIKR
B4: PiH1008 (antibody, V domains shown)
VH: B3 VH
VL: B3 VL with D17G, K45R
B5: PiH1006 (antibody, V domains shown)
VH: B3 VH with S44G, A68V, K74T
VL: B3 VL with D17G, K45R
B6: RecA101 (antibody, V domains shown)
VH: B2 VH
VL: B2 VL with S93N
B7: PiH2006 (antibody, V domains shown)
VH: B3 VH with S44R, V51I, S59N, A68V, M70I, K74T, T76A, V79A, L108M
VL: B3 VL with D17G, V43A, L73F, V83I, S93N
B8: 54B5A7 (antibody, V domains shown)
VH: B2 VH with V51I, S59N, L108M
VL: B2 VL with S93N

The first test addresses T1, monkey CLDN6 (Cyno CLDN6). Description: FACS. (In flow cytometry, cells or beads pass a laser one at a time.)
B1: the midpoint of the response, the EC50, lay at 0.0916 µg/mL.

For the molecule B2, the EC50 came out at 0.636 µg/mL.

As for B3, the midpoint of the response, the EC50, lay at 0.844 µg/mL.

For the molecule B4, the concentration giving a half-maximal response (EC50) was 0.97 µg/mL.

With B5, the EC50 stood at 1.28 µg/mL.

Another test addresses T2, human CLDN6. The test can be described thus: FACS; HepG2 cells.
Take B6: the EC50 stood at 0.521 µg/mL.

For the next test, the target named is T1, monkey CLDN6 (Cyno CLDN6). The test can be described thus: FACS. This is another data set of the same source.
Turning to B1, the midpoint of the response, the EC50, lay at 0.0916 µg/mL.

With B7, the EC50 is 1.33 µg/mL.

Another test addresses T3, mouse CLDN6. Description: FACS.
B2 displayed an EC50 of 0.608 µg/mL.

B8 came in with an EC50 of 0.844 µg/mL.

B7 had an EC50 of 52.3 µg/mL.

The molecule B3 registered an EC50 of 8.57 µg/mL.

B4 displayed an EC50 of 6.42 µg/mL.

For the molecule B5, a half-maximal effect (EC50) was put at 18.4 µg/mL.

The target of another test is T2, human CLDN6. The test can be described thus: FACS; HepG2 cells, FIG. 24.
B1 gave an EC50 of 0.537 µg/mL.
